What was measured:
[1] = target: inactive BoNT/G (BoNT/Gi) (Clostridium botulinum) (UniProt Q60393); assay: FACS, scFv on yeast
[2] = target: inactive BoNT/G (BoNT/Gi) (Clostridium botulinum) (UniProt Q60393); assay: scFv on yeast surface
[3] = target: inactive BoNT/G (BoNT/Gi) (Clostridium botulinum) (UniProt Q60393); assay: flow cytometry, scFv on yeast
[4] = target: inactive BoNT/G (BoNT/Gi) (Clostridium botulinum) (UniProt Q60393); assay: titration on yeast-displayed scFv, flow cytometry, fit y = m1 + m2*M0/(m0+m3)

Sequence of inactive BoNT/G (BoNT/Gi) (Clostridium botulinum) (Q60393 whole entry): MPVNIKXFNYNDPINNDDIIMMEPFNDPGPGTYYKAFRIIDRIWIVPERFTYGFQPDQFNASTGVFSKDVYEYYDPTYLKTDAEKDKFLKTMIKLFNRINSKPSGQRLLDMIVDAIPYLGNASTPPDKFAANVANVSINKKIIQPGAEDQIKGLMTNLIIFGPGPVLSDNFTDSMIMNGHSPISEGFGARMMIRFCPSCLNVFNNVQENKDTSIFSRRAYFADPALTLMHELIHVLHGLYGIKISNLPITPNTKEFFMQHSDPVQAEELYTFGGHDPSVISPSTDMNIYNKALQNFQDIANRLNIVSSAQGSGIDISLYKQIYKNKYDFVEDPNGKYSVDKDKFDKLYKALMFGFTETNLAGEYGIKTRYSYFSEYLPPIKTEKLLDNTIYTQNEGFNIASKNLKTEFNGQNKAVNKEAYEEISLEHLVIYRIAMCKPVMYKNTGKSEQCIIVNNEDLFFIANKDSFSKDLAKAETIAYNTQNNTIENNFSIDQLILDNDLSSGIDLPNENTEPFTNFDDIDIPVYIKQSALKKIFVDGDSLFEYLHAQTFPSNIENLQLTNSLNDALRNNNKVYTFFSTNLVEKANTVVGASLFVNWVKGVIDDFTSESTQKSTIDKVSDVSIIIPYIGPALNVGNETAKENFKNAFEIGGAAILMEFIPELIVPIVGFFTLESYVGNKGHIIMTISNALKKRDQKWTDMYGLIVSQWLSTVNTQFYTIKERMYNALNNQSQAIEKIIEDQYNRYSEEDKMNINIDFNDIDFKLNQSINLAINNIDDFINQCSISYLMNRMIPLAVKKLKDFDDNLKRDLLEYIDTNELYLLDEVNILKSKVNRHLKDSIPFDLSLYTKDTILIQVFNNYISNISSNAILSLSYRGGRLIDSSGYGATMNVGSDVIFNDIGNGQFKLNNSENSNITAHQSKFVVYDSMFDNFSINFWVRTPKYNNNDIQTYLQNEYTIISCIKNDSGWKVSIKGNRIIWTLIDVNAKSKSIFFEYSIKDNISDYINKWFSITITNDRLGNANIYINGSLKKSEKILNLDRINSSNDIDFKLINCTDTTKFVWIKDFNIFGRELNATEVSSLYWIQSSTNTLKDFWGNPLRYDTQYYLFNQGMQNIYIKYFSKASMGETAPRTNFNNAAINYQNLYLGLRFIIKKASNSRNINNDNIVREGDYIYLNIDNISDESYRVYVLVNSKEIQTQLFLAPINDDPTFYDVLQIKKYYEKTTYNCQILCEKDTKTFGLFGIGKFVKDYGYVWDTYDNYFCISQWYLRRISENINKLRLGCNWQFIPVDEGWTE

B1: hu6G6 scFv (scFv)
scFv: QVQLVQSGAEVKKPGASVKLSCKASGFNIKDTYMHWVRQAPGQGLEWIGRIDPANGNTKYDPKFQGRATITADTSINTAYLELSRLRSDDTAVYYCASGPNYYGTTWFAYWGQGTTVTVSSVDLKSGGSTSGSGKPGSGEGSSGSAREIVLTQSPSTLSASVGDRVTITCRASHGISNYLAWYQQKPGRAPKLLIYKASTLHIGVPSRFSGSGSGTEFALTISSLQPDDFSTYYCQQYNSYLPHTFGQGTRLEIK
- Kd [1]: 23 nM
- Kd [2]: 5 nM
- fold improvement over parental 6G6 [2]: > 3 fold
- Kd [3]: 23.2 nM

B2: 6G9A2 (scFv, V domains shown)
VH: QVQLVQSGAEVKKPGASVKMSCKASGYTFTSYWMHWVRQAPGQGLEWIGYINPSTGYTEYNQKFKDRATLTADKSTSTAYMELRSLRSDDTAVYYCARGGNYVDYWGQGTTLTVSS
VL: DVVMTQSPSFLSASVGDRVTVTCRASQSIGSWLAWYQQKPGKAPKLLIYAASSLQSGVPSRFSASGSGTDFTLTISSLQPDDFATYFCHRLNSYPLTFGGGTKVEIK
- Kd [4]: 6.2 nM

B3: 6G9B9 (scFv, V domains shown)
VH: QVQLVQSGAEVKKPGASVKMSCKASGYTFTSYWMHWVRQAPGQGLEWIGYINPSTGYTEYNQKFKDRATLTADKSTSTAYMELRSLRSDDTAVYYCARGGNYVDYWGQGTTLTVSS
VL: DIQMTQSPSTLSASVGERVTITCRASQGISSWLAWYQQKPGKAPKRLIYAVSTLQTGVPSRFSGSGSGTDLTLTINSLQPEDFATYYCQHLNSYPLTFGGGTKVEIK
- Kd [4]: 3.78 nM

B4: hu6G7.1A5 (scFv, V domains shown)
VH: QVQLVQSGAEVKKPGASVKVSCKASDYSFTDYNIYWVRQAPGQGLEWIGYIDPYNGGTSYNQKFKGRATLTVDKSISTAYMELSRLRSDDTAVYYCALYGYDPDYIDYWGPGTTLTVSS
VL: DIVLTQSPASMAASPGQRVTITCSASSSVSYLHWFQQKPGQSPKLMIYGTSNLASGVPVRFSGSGSGTSYSLTINPMEAEDTATYYCQQRSSYPYTFGQGTKLEIK
- Kd [4]: 4.91 nM

B5: hu6G7.1D6 (scFv, V domains shown)
VH: QVQPVQSGAEVKKPGASVKVSCKASDYSFTDYNIYWVRQAPGQGLEWIGYIDPYNGGTSYNQKYRGRATLTVDKSINTAYMELSRLRSDDTAVYYCALYGYDPDYIEYWGQGTTLTVSS
VL: DIVLTQSPASMAASPGQRVTITCSASSSVSYLHWFQQKPGQSPKLWIYSTSNLASGVPARFSGSGSGTDYTLTINPMEAEDTATYYCQQRSSYPYTFGQGTKLEIK
- Kd [4]: 5.03 nM
